This data set can be described thus: soluble on expression in E. coli; label from the status in PepcDB or PDB records.
With “MSKSYNQRQRKKLHLAEFQELGFLVNFQFAEGTAIETVDETVDRFINEVIQPNGLAYEGSGYLHWEGLVCLEKIGKCDESHRETVKKWLETNGLQQIEVSELFDIWW”, the “soluble on expression in E. coli” value is reported as “not soluble”.
Under “MGSDKIHHHHHHMTLSDPRFISLNQWLNCYFSDDVTPILISGDASFRRYFRVFAHDTSYIIADSPPALVPIAPFIALSSAYAAAGLTVPKVIASDADQGFMLLSDLGDTQLLSVLTDDNVADYYCRALALLPQVATVVESQDPVSGITQPLPLYDEAFVRRELGIFTEWLLARHLQLELGDEERTLVDESFDLLVKNALAQPKVGMHRDFHSRNLMLKDGGLCVIDFQDAVLGPVTYDAVSLLRDCYIRWPQAMVLELIQQHYQQVLESGHLPEGTSFRQYQSWFDLMGLQRHIKAAGIFARLYYRDNKPAYMADIPLTLAYIVDIARMYPELAPFAAWVESRVIPAFNLPLKQQDKQPGSSR” stands “not soluble”.
Under “MKEFWVWVEPFDRKIVSVALEAGANAVVIPEKGRVEEVKKVGRITVIAPDGDLKLGEDVVYVLIKGKEDEERAAKYPPNVKVIVETTDWTVIPLENLIAQREELYAVVKNAQEAEVALQTLEKGVKGVVLKSRDINEIKKVGQIVSEHEEKLELVTIKITKILPLGLGDRVCVDTISLLHRGEGMLVGNSSGGMFLVHAETEENPYVAARPFRVNAGAVHMYIRVPNNRTKYLCELKAGDKVMVYDYKGRGRVTYVGRAKVERRPMLLIEGRYENKKLSCILQNAETIRLTKPDGTPISVSELKEGDEVLGYVEEAGRHFGMKVEETIIEK” stands “not soluble”; under “GPGSMKRLLDSAKHLLRGGSLGYLASGEPYHPFGEDFGLTVFPDYIQLREKLALRSGYVDVYTQRSASIKLSDGRFQLPPLPKHSFLPLVERLEQDGIVPRGWLNNQTANLYEPEDFIRAHIDNLFVYDDIFAVISLGANALLRFVHVQNGEELDVVIPDGSVYIMSGPSRYVYFHMVLPVEAQRVSIVFRRSILNSDGGFRPVSTPLGDLMPYRSTQILNTLYAKQIGGVRVAVDDKYLEKEEIGAFDTGKWVKGLHPLRDWTLLSQLDEDEARVLELREKRYLDVDLSWRFTELRKRYKELEDMLRV”, “not soluble”.
“MTYQTIVVAVDGSKEAEWALKKAIQIAKRNGAKLILSHIIDLRGFTTVEAHDYALAERSEQYANELLERYKNEAIAAGLDDVDIAVEFGSPKVKIAKDVAPKYKADLIVCGATGLNAVERLLIGSVSENIVRHAKCDVLVVRTPKE”: the “soluble on expression in E. coli” value is reported as “soluble”.
As for “MSDESPAFALHSGSSRQRKSLEFRFQQSPRWAPYSSASDGNEQKTSLVNNSLTRPNSSNPQCLNEENGFDRDSTAISTSFRSLLSLSESSVPWETPTNNQSSSLTHCSYPRVFCNPVSVCENPEPDHTQEDSSTNPGSSIMMSTRNHQGSPVEEEVSPNSSSNDMLLDVERSNDTEVANPRSEQGSMTHQRCGICKKLLSQKSPWSSYKILRSRDMPATGVFPCHHVYHVECLDKATPTAQTRDPSCPVCSNTIGVMEQPLIAPETLQMALRSLRRSRTALELETVRVPSNDNQRRHNTRRSHKWDKLSCCLNISFSSSS”, the entry is “soluble”.
Under “MAHHHHHHMVDLLQRALANPFQDKLTFSPEDWDAHGLQPYQRCLREPFLRGCDTLVHKIRMQRIDFAKGILEQVVEDVQFRQKWGSLGEDYVTENAVQLTAYIFDSQERSLGGRRDPRKEDGAAQNIVYQPSTLSLGGDPALESLVTCVWFLRRDVLLLHQDFCYPVCEGRLTVFGRVQVALLRFYVRHAIKPRLLFLRQQHRGTLVVVELMMIGFAFCVERLMRPGLTCSGTVARRIRRVQGGTASSTSTGSGLVSGVHGEDSVAAASSGGGSAGGGGGGGGGGKLHCRPGRRRRWVVVM” stands “not soluble”.
As for “MSLSSEHIQNKLALLPDQPGCYLMKDRQGTIIYVGKAKILKNRVRSYFSGTHDSKTQRLVQEIVDFEYIVTSSNVEALLLEINLIKKHDPRFNIRLKDDKTYPFIKITNERHPRLIITRQVKKDKGKYFGPYPNVYAANEVKRILDRLYPLRKCSTLPNKVCLYYHLGQCLAPCVFDVEASKYKEMQDEIVTFLNGGYKTVKNDLMKKMQEAAENMEFEKAGEFRDQINAIETTMEKQKMTMNDFVDRDVFGYAIDKGWMCVQVFFIRQGKLIERDVSQFPFYNDADEDFLTFIGQFYQKANHIPPKEIYLPDDVDSEAVQAVVPDTKIIVPQRGNKKDLVKLAYKNAKIALNEKFMLLERNEERTVGAVERLGEAMGIPTPSRVEAFDNSNIHGTDPVSAMVTFLDGKPSKNDYRKYKIKTVEGPDDYATMREVIRRRYWRVLKEELPMPDLILIDGGKGQIDSAKDVLTNELGLDIPVAGLAKDDKHRTSQLLFGDPLEIVPLERNSQEFYLLQRMQDEVHRFAITFHRQLRSKTGFQSILDGIPGVGPGRKKKLLKHFGSMKKLKEASVEEIKEAGVPLNVAEEVHKHITAFNEGHHHHHH”, the entry is “soluble”; as for “MNRFFILSGCSGGGKSTLLAELARRGFATVEEPGRRIVIEETRNGGTALPWIDMQAFARRAIAMALEDRRVTPKEGLVFFDRGLIDAASALHHISGDRFVNTLRDTHRYNSLVFLTPPWPEIYQSDDERKHGFDAAVEEYERLVRDYEGLGYDIVVLPKSAVAERADLILTRIGLEHHHHHH”, “not soluble”.
Consider “MMTKTQINKLIKMMNDLDYPFEAPLKESFIESIIQIEFNSNSTNCLEKLCNEVSILFKNQPDYLTFLRAMDGFEVNGLRLFSLSIPEPSVKNLFAVNEFYRNNDDFINPDLQERLVIGDYSISIFTYDIKGDAANLLILEHHHHHH”, for which the “soluble on expression in E. coli” value is reported as “not soluble”.
As for “MTATATEGAKPPFVSRSVLVTGGNRGIGLAIAQRLAADGHKVAVTHRGSGAPKGLFGVEVDVTDSDAVDRAFTAVEEHQGPVEVLVSNAGLSADAFLMRMTEEKFEKVINANLTGAFRVAQRASRSMQRNKFGRMIFIGSVSGLWGIGNQANYAASKAGVIGMARSIARELSKANVTANVVAPGYIDTDMTRALDERIQQGALQFIPAKRVGTPAEVAGVVSFLASEDASYISGAVIPVDGGMGMGH”, the entry is “soluble”; as for “MRGSHHHHHHGIRMRARYPAFSVNYDSSFGGYSIHDYLGQWASTFGDVNHTNGNVTDANSGGFYGGSLSGSQYAISSTANQVTAFVAGGNLTYTLFNEPAHTLYGQLDSLSFGDGLSGGDTSPYSIQVPDVSFGGLNLSSLQAQGHDGVVHQVVYGLMSGDTGALETALNGILDDYGLSVNSTFDQVAAATAVGVQHADSPELLAA”, “soluble”.
As for “MVYWEYKINQTRRVMKNLKFQSVFDIIGPVMVGPSSSHTAGAVRIGKIVSAIFGDAPTEVEFQLFNSFAKTYRGHGTDVALVAGILGMETDDPDIPHALDIAHEKGIKVYWKINKDSKAPHPNTTRITLKNATKTISATGISIGGGNIQVTELNGF”, the entry is “not soluble”; as for “MEPDLKNVKNAGTGESNKDEIKNTNASRRSGRKVKTIIEEDPNINKKMELPPTLMPKFPSQKIIKQQKSPDKNEPPPARPVEQTEENEENNADEKEKHEIFWQEGVIEECQGREDEGEVPKEQEEHAHVSPDPTSLNDKKSKFEKPNLEPGKPEKPEKLDKPLAKPLPPPSAAPPPVAPLSAPVPSTGAPPSAVPPADKKMSKQSTRDKKSGRSTDRNIHKKKDVAALDENKKSPEDKKKDAGTKKGSTEDASTDNLNNGKVQSRRKSKRQKKSIFQQPVQRTPGSHPSAYLQPTRARTERSLKLPPAEPKSVDERPRKPSTQILQPQQPNRGGQVQKQPSKVVLQPGAPGATPVASTPNQREQAQQQQQQQQKGPMGLFKKIYRKMNFRAASDCTVEPTKEMLAKSYVRPEHNSNDPIDFCPDLPKKLFDEEAWKLRMTNKGANRNEVFLNNRPFWLTRDGTEQIPKVRIQLHRPLKQMHSGNPASIQLKLQRTDPFLDPKEDTLERLKIVDKAIGVDPLDLTKDRELKRVCANTFHGTLMFEVDKRQYDTQQKKAEAEALKLDPKRKNDGKEKDQKSSFEDPKKVAFNVSDKCTLHVYFRKHRPLTNQGKSERFTEKKYTMGERKIMKKGEKPAVPQLVPPTSSSTTSASSSSCRETKKL”, “not soluble”.

(Values after the DeepSol protein solubility set.)
